Source: patent publication US20160161500A1, “METHOD OF SCREENING AN ANTIBODY” (SAMSUNG ELECTRONICS CO., LTD., priority 2014, published 2016)

Molecular target: T1, c-Met on EBC-1 cells (UniProt P08581 25-1390, limits assumed)
T1 construct: whole, on cells; EBC-1 is a human lung cancer line; also called c-Met on the cell surface
Assay: flow cytometry on EBC-1 cells; antibody bound at pH 7.4, cells fixed, then buffers of pH 1.5 to 7.4
Experimental: In order to examine the degree of influence of pH conditions on the binding of anti-c-Met antibody and c-Met, the antibody was reacted with c-Met to form a binding therebetween, and then, treated with buffer with various pH to change the pH conditions, and then, the amount of the antibody which maintain the binding to the antigen (c-Met) at a certain pH was measured.
In particular, EBC-1 cells (ATCC) were counted and seeded in e-tubes at the amount of about 3×10⁵ cells per tube. As a medium, RPMI-1640 (Gibco) was employed. The cell culture was washed with phosphate buffer saline (PBS; pH 7.4) to remove the medium, and treated with each of c-Met antibodies A, B, and C, and c-Met bispecific antibody A, provided in Example 1, at the amount of 1 μg/ml per a tube, and then, kept in ice for 30 minutes. The obtained cells were treated with 4% formaldehyde for 10 minutes to be fixed. After washing with PBS(pH7.4), the cells treated with FACS buffer with various pH (0.2%(v/v) FBS (Fetal bovine serum) in PBS, pH 1.5, 2.0, 2.5, 3.0, 4.0, 5.0, 6.0, or 7.4) and kept in ice for 5 minutes. […] The c-Met antibody attached to cell surface was quantified by Flow cytometry (BD, FACS Cantoll).

T1 sequence (P08581 25-1390 limits assumed): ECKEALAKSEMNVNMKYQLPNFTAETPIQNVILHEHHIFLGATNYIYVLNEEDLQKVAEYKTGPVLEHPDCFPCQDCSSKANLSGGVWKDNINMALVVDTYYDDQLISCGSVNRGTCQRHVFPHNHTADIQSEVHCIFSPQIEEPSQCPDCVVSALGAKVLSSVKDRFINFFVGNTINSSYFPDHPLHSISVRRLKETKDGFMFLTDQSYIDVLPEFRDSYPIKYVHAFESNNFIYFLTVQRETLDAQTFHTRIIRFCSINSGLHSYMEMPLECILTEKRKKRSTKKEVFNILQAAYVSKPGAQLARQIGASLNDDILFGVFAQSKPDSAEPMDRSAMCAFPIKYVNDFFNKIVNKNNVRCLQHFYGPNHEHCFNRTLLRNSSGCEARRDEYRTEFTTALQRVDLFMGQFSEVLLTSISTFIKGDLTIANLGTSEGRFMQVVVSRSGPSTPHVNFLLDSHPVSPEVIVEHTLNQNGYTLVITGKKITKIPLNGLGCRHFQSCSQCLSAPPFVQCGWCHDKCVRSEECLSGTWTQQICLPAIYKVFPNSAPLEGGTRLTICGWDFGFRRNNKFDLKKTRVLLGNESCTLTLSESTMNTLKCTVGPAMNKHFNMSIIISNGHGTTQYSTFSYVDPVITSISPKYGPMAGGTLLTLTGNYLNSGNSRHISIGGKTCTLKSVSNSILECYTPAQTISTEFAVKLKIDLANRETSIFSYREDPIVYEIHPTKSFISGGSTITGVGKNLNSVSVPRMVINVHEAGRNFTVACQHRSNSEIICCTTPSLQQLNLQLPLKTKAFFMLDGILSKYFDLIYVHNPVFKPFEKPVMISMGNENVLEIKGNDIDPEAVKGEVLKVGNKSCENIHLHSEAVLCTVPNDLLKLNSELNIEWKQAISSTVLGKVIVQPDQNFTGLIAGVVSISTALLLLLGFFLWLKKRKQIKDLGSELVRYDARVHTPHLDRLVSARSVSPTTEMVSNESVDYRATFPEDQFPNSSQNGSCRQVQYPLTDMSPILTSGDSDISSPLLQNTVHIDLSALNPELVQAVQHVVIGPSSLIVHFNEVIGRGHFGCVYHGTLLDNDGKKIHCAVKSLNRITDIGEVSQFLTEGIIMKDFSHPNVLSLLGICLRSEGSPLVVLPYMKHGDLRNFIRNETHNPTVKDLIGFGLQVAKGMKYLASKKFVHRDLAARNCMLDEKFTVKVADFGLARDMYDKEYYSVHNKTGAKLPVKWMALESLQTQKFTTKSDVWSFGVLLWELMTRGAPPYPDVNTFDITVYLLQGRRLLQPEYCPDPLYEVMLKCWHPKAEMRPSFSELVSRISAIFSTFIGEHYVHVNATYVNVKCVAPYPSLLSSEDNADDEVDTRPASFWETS

Binder | binding result
Anti-c-Met antibody A (antibody, human IgG2, kappa, V domains shown, IgG2 antibody) VH: EVQLVESGGGLVQPGGSLRLSCAASGFTFTDYYMSWVRQAPGKGLEWLGFIRNKANGYTTEYSASVKGRFTISRDNSKNTLYLQMNSLRAEDTAVYYCARDNWFAYWGQGTLVTVSS VL: DIQMTQSPSSLSASVGDRVTITCKSSQSLLASGNQNNYLAWYQQKPGKAPKMLIIWASTRVSGVPSRFSGSGSGTDFTLTISSLQPEDFATYYCQQSYSRPYTFGQGTKVEIKR | binds
Anti-c-Met/anti-EGFR bispecific antibody A (bispecific antibody, human IgG2, kappa, Anti-c-Met antibody A (IgG2) with an anti-EGFR scFv (VH-linker-VL) linked to the C-terminus of its Fc; also called c-Met bispecific antibody A) heavy: EVQLVESGGGLVQPGGSLRLSCAASGFTFTDYYMSWVRQAPGKGLEWLGFIRNKANGYTTEYSASVKGRFTISRDNSKNTLYLQMNSLRAEDTAVYYCARDNWFAYWGQGTLVTVSSASTKGPSVFPLAPCSRSTSESTAALGCLVKDYFPEPVTVSWNSGALTSGVHTFPAVLQSSGLYSLSSVVTVPSSNFGTQTYTCNVDHKPSNTKVDKTVERKCCVECPPCPAPPVAGPSVFLFPPKPKDTLMISRTPEVTCVVVDVSHEDPEVQFNWYVDGVEVHNAKTKPREEQFNSTFRVVSVLTVVHQDWLNGKEYKCKVSNKGLPAPIEKTISKTKGQPREPQVYTLPPSREEMTKNQVSLTCLVKGFYPSDIAVEWESNGQPENNYKTTPPMLDSDGSFFLYSKLTVDKSRWQQGNVFSCSVMHEALHNHYTQKSLSLSPGKGGGGSGGGGSEVQLLESGGGLVQPGGSLRLSCAASGFTFSNYDMSWVRQAPGKCLEWVSGISHSSGSKYYADSVKGRFTISRDNSKNTLYLQMNSLRAEDTAVYYCAKDATPRPLKPFDYWGQGTLVTVSSGGGGSGGGGSGGGGSQSVLTQPPSASGTPGQRVTISCTGSSSNIGNNDVSWYQQLPGTAPKLLIYDDNKRPSGVPDRFSGSKSGTSASLAISGLRSEDEADYYCGSWDASLNAYVFGCGTKLTVLG light: DIQMTQSPSSLSASVGDRVTITCKSSQSLLASGNQNNYLAWYQQKPGKAPKMLIIWASTRVSGVPSRFSGSGSGTDFTLTISSLQPEDFATYYCQQSYSRPYTFGQGTKVEIKRTVAAPSVFIFPPSDEQLKSGTASVVCLLNNFYPREAKVQWKVDNALQSGNSQESVTEQDSKDSTYSLSSTLTLSKADYEKHKVYACEVTHQGLSSPVTKSFNRGEC | binds
